# Experimental data as given in PMC6372160, “Biophysical and structural characterization of a zinc-responsive repressor of the MarR superfamily” (PLoS ONE, 2019).
# B1: ZitR protein of Lactococcus lactis subspecies cremoris strain MG1363, untagged recombinant (S2A, A4R, D8E) form (natural protein, UniProt A2RNS2 1-145, looked up)
# chain: MALRNQIEQFLGAIMQFAENKHEILLGECESNVKLTSTQEHILMILAAEVSTNARIAEQLKISPAAVTKALKKLQEQELIKSSRATNDERVVLWSLTEKAIPVAKEHAAHHEKTLSTYQELGDKFTDEEQKVISQFLSVLTEEFR
# notes: A minor tetrameric form was also seen at the end of the purification; also called ZitRMG; holo-ZitRMG
# Tests used:
# [1] = target: the molecule itself; assay: SEC; gel filtration at the end of purification, 20 mM Tris-HCl (pH 7.0), 200 mM NaCl, 100 uM ZnSO4; data not shown
# [2] = target: the molecule itself; assay: SEC-MALS; 50 ul of fully purified protein at approximately 1-4 mg/ml on a KW-803 column (Shodex), 0.5 ml/min, supplemented with 1 uM ZnSO4 (untreated protein)
protein,measurement,setting,value
B1,stoichiometry N,[1],4
same,stoichiometry N,[2],2
